From patent US7482008B1, “Human T cell reactive feline protein (TRFP) isolated from house dust and uses therefor” (Merck Patent GmbH, priority 1989, dated 2009)

Experiments:
IgE = IgE binding of dimeric recombinant chain 1 and alkali treated TRFP
T cell = T cell reactivity of dimeric recombinant chain 1 and alkali treated TRFP; type: cell-based
[1] = test system: human IgE (cat allergic patient plasma); assay: Direct binding ELISA of human IgE to coated antigen; conditions: direct binding ELISA or similar protocol
Experimental: The basic format of these ELISA assays was a direct binding assay wherein the antigen was coated onto the wells of a 96 well microtitre dish and then antibodies in solution are added and assayed for the binding capacity. The protocol for these assays was as follows:
The peptides were conjugated to HSA (human serum albumin) by two different methods based on their chemical structure. […] Both conjugates were filter purified and dialyzed against PBS. In the ELISA assay, the unbound coating antigens were removed and the wells were blocked with 0.5% gelatin in PBS, 200 μl/well for 2 hours at room temperature. The antibody solution was a pool of plasma samples from 20 patients that were skin test positive for commercial cat extract which was serially diluted with PBS-Tween 20 (PBS with 0.05% nonionic detergent Tween-Sigma, St. Louis Mo.) and 100 μl/well was added and incubated overnight at 4° C. (plasma dilutions are tested in duplicate). […] The second antibody (biotinylated goat anti-Human IgE, 1:1000 Kirkegaard & Perry Laboratories Inc. Gaithersburg, Md.), was added at 100 μl/well for one hour at room temperature. This solution was removed and streptavidin-HRPO, 1:1000, (Southern Biotechnology Associates, Inc., Birmingham, Ala.) was then added at 100 μl/well for one hour at room temperature (all wells were washed three times with PBS-Tween between each incubation step). TMB Membrane Peroxidase Substrate system (Kirkegaard & Perry Laboratories) was freshly mixed, and added at 100 μl/well. The color was allowed to develop for 2-5 minutes. The reaction was stopped by the addition of […] of 1 M phosphoric acid. Plates are read on a Microplate EL 310 Autoreader (Biotek Instruments, Winooski, Vt.) with a 450 nm filter. The absorbance levels of duplicate wells were averaged.

[2] = test system: T cells from cat-allergic patients; assay: Secondary proliferation assay of T cells primed with TRFP, peptide YXZ or peptide YZX; type: cell-based, human
Experimental: The human cat allergic T cell response to peptides produced as above was examined. […] Peptide YZX was cleaved with thrombin as described in Example 25. Viable cells were then purified by Ficoll-Hypaque centrifugation and cultured for 2 additional weeks in RPMI-1640/5% AB serum containing 5 units recombinant human IL-2/ml and 5 units recombinant human IL-4/ml. The resting T cells were then tested in a secondary proliferation assay using a 96 well microtiter plate to assess T cell responses to various TRFP proteins or peptides (TRFP antigens). For assay, 2×10^4 resting T cells were cultured for 3 days at 37° C. in the presence of 2×10^4 autologous Epstein-Barr virus transformed B cells (25,000 Rads) as antigen presenting cells with various concentrations of antigen in 200 μl per well. Each well then received 1 μCi tritiated thymidine for 16 hours. The counts incorporated were collected onto glass fiber filters and processed for liquid scintillation counting. The stimulation indices for responses to each antigen were then calculated as the maximum CPM in response to antigen divided by the medium control CPM. A stimulation index of 2.5 was considered to be a positive T cell response. A summary of the results of 3 such experiments (patients 522, 519, and 386 is shown in FIG. 35a, FIG. 35b and FIG. 35c). As compared to the experiments shown in FIGS. 35a and 35b in the experiment shown in […], Fel-1.4 (chain 1, amino acid residues 6-17) was substituted for Fel-1.2 (chain 1, amino acid residues 1-17) and Fel-33.3 (chain 2, amino acid residues 26-40) was substituted for Fel-18 (chain 2, amino acid residues 23-48) in order to more closely resemble the constituent amino acids of peptides X and Z. In addition, in this experiment one peptide derived from the Y-Z junction of peptide YZX (amino acid residues 50-55 from chain 1 of TRFP and amino acid residues 14-19 from chain 2 of TRFP) and one peptide derived from the Z-X junction of peptide YZX (amino acid residues 34-39 of chain 2 of TRFP and amino acid residues 7-12 of chain 1 of TRFP) were synthesized and tested. These junction peptides were produced in order to determine whether these areas of peptide YZX produce a non-native epitope when formed in the peptide.

B6CBAF1 mice = assay: Murine T cell response after immunization with peptide YZX, IL-2 production (CTLL-2); type: in vivo, mouse; conditions: mice immunized with 100 μg peptide YZX in CFA; label = antigen in culture
Experimental: 10 B6CBAF1 mice were immunized subcutaneously at the base of the tail and in the thigh region with 100 μg of peptide YZX in complete Freund's adjuvant. After 10 days, the inguinal, paraaortic, and popliteal nodes of the immunized mice were removed and pooled. The lymph node cells were suspended in cold RPMI 1640 with 1% fetal bovine serum (FBS) by passage through stainless steel mesh. The cells were washed 2 times with cold RPMI-1640 containing 1% FBS and maintained at 4° C.
The lymph node cells were plated at 4×10^6 cells/ml in RPMI 1640 with 10% FBS, 250 μg/ml penicillin G, 100 μg/ml streptomycin, and 5×10^−5 M 2-mercaptoethanol. […] After 24 hours, 50 μl of supernatant was removed from each culture and frozen overnight to eliminate live cell carryover. The supernatant was warmed to […] and washed. CTLL-2 indicator cells (ATCC # T1B 214) were added (5×10^3 cells/well). This indicator cell line requires IL-2 for continued growth. After 24 hours, H^3-thymidine (1 μCi/well) was added and the cells were further incubated for 4 hours. The plates were frozen and thawed, harvested on a Tomtec 96 well harvester (Tomtec, Orange, Conn.), and counted on a Betaplate beta counter (Pharmacia, Gaithersburg, Md.).

human IgE [3] = assay: SDS/PAGE Western immunoblot of human IgE binding, plasma from patient #417; conditions: patient #417 plasma
Experimental: Western immunoblot analysis of the peptides produced in above was performed. The concentration of all protein samples (e.g., TRFP, recombinant chain 1 of TRFP, recombinant chain 2 of TRFP, peptide XYZ, peptide XZY, peptide YXZ, peptide YZX, peptide ZXY and peptide ZYX) for gel electrophoresis was determined by the BCA method (Pierce Co.). All protein samples were loaded on the gel at 5 μg/lane except TRFP at 10 μg/lane. Protein separation was carried out on a 15% acrylamide gel, and transfer was performed by electroblotting at 1.5 Amps for 1.5 hours onto nitrocellulose paper (Schleicher and Schuell, 0.1 microns) in a Hoeffer apparatus according to the protocol of Towbin, H., T. Stachlin, and J. Gordon, PNAS 76:4350 (1979). Proteins were rinsed in blot solution (25 mM Tris-HCl 7.5, 0.171 M NaCl and 0.5 ml/liter Tween 20). The blot was then blocked for one hour in blocking solution (1% milk in blot solution). Plasma from patient #417, used as a primary antibody source, was diluted in blocking solution to 10% and preabsorbed for 1.5 hours with unused nitrocellulose (2 cm×15 cm). The prepared human plasma was then incubated overnight on an orbital shaker with the protein blot section of interest. Following the first antibody incubation the blot section was washed three times, each wash involved a fifteen minute incubation in blot solution. The second antibody, specific for human IgE (biotinylated goat anti-human IgE, KPL Inc.), was diluted 1:2500 in blot solution and the incubation proceeded for two hours. Excess second antibody was subsequently removed by three 15 minute incubations with blot solution. ^125I Iodinated streptavidin (Amersham) was diluted 1:2500 in blot solution and incubated with blots for 1 hour, at 2 μCi in a 50 ml incubation volume. Blot sections were then washed with blot solution until the detectable radioactivity in the waste solution decreased to background levels. The blot section was then wrapped in saran wrap and exposed to film overnight with a cronex intensifying screen at −80° C.

human IgE [4] = assay: ELISA of human IgE binding, plasma from patient #669; conditions: patient #669 plasma
Experimental: Corning assay plates (#25882-96) were coated with 10 μg/ml of each coating antigen (i.e., TRFP, chain 1 (recombinant chain 1 of TRFP), chain 2 (recombinant chain 2 of TRFP), peptide XYZ, peptide XZY, peptide YXZ, peptide YZX, peptide ZXY and peptide ZYX) listed in FIG. 34 at 50 μl/well and incubated overnight at 4° C. The coating antigens were removed and the wells were blocked with 0.5% gelatin in PBS, 200 μl/well for 2 hours at room temperature. Plasma from patient #669 was serially diluted with PBS-Tween 20 (PBS with 0.05% nonionic detergent Tween-20 Sigma, St. Louis Mo.) and 100 μl/well was added and incubated overnight at 4° C. (plasma dilutions are tested in duplicate). The second antibody (biotinylated goat anti-Human IgE, 1:1000, Kirkegaard & Perry Laboratories Inc. Gaithersburg, Md.), was added at 100 μl/well for one hour at room temperature. This solution was removed and streptavidin-HRPO, 1:10,000 (Southern Biotechnology Associates, Inc., Birmingham, Ala.) was then added at 100 μl/well for one hour at room temperature (all wells were washed three times with PBS-Tween between each incubation step). TMB Membrane Peroxidase Substrate system (Kirkegaard & Perry Laboratories) was freshly mixed, and added at 100 μl/well. The color was allowed to develop for 2-5 minutes. The reaction was stopped by the addition of 100 μl/well of 1M phosphoric acid. Plates were read on a Microplate EL 310 Autoreader (Biotek Instruments, Winooski, Vt.) with a 450 nm filter. The absorbance levels of duplicate wells were averaged.

[5] = patient 386, T cells primed with YZX

Molecule	T cell response of pooled lymph node cells (IL-2 production) (B6CBAF1 mice)	IgE binding, Western immunoblot (human IgE [3])	IgE binding, ELISA (human IgE [4])	further results
mild alkali treated TRFP: mild alkali treated TRFP	–	–	–	IgE binding (IgE): markedly reduced IgE binding; T cell reactivity (T cell): maintains T cell reactivity
peptide Z: amino acid residues 14-39 from chain 2 of TRFP (SEQ. ID. NO: 19) (FFAVANGNELLLDLSLTKVNATEPER)	significant response	–	–	specific IgE binding [1]: None of these peptides showed IgE binding; T cell response [2, 5]: respond at a similar level or better; T cell response ([2]; patient 519, cells primed with peptide YXZ): positive responses; T cell response ([2]; patient 522, T cells primed with YXZ): respond at a similar level or better
recombinant chain 1 of TRFP in a dimeric form: recombinant chain 1 of TRFP in a dimeric form	–	–	–	IgE binding (IgE): markedly reduced IgE binding; T cell reactivity (T cell): maintains T cell reactivity
recombinant chain 2: recombinant TRFP chain 2 expressed in E. coli (protein, UniProt P30440 18-109, looked up, expressed in E. coli, recombinant TRFP chain 2 expressed in E. coli) Major allergen I polypeptide …: VKMAETCPIFYDVFFAVANGNELLLDLSLTKVNATEPERTAMKKIQDCYVENGLISRVLDGLVMTTISSSKDCMGEAVQNTVEDLKLNTLGR	–	reduced compared to chain 1	somewhat lower binding	–
peptide XYZ: recombinant peptide: peptide X, peptide Y and peptide Z linked in this order (protein) MGHHHHHHLVPRGSKRDVDLFLTGTPDEYVEQVAQYKALPVVLENARILKNCVDAKMTEEDKEFFAVANGNELLLDLSLTKVNATEPER	–	show IgE binding	slight signal	–
peptide ZXY: recombinant peptide: peptide Z, peptide X and peptide Y linked in this order (protein) MGHHHHHHEFFFAVANGNELLLDLSLTKVNATEPERKRDVDLFLTGTPDEYVEQVAQYKALPVVLENARILKNCVDAKMTEEDKE	–	show IgE binding	clear reactivity with IgE	–
peptide XZY: recombinant peptide: peptide X, peptide Z and peptide Y linked in this order (protein) MGHHHHHHEFKRDVDLFLTGTPDEYVEQVAQYKALPVFFAVANGNELLLDLSLTKVNATEPERKALPVVLENARILKNCVDAKMTEEDKE	strong T cell responses	negative for IgE binding	–	–
peptide YZX: recombinant peptide: peptide Y linked to peptide Z linked to peptide X (SEQ ID NO: 103) (protein) MGHHHHHHEFLVPRGSKALPVVLENARILKNCVDAKMTEEDKEFFAVANGNELLLDLSLTKVNATEPERKRDVDLFLTGTPDEYVEQVAQYKALPV	respond well	negative for IgE binding	–	T cell response [2, 5]: respond at a similar level or better; T cell response ([2]; patient 386, T cells primed with native TRFP): positively respond
peptide ZYX: recombinant peptide: peptide Z, peptide Y and peptide X linked in this order (protein) MGHHHHHHLVPRGSFFAVANGNELLLDLSLTKVNATEPERKALPVVLENARILKNCVDAKMTEEDKEKRDVDLFLTGTPDEYVEQVAQYKALPV	strong T cell responses	negative for IgE binding	–	–
